Experiments:
Assay in all cases: SPR; 40 RU of each antibody immobilized on a CM5 chip; oxMIF (MIF treated with 0.2% Proclin300) injected at 3–25 nM in HBS-EP (HEPES 10 mM, NaCl 150 mM, EDTA 3 mM, 0.005% Tween-20); BIAcore T200; 25 °C; 1:1 Langmuir model
BaxM159 variant 3-EIVLAQ = target: BaxM159 variant 3-EIVLAQ
BaxM159 variant 4-DIQMGQ = target: BaxM159 variant 4-DIQMGQ
BaxM159 variant 7-EIVLAE = target: BaxM159 variant 7-EIVLAE
[1] = target: BaxM159 variant 2-DIQMAQ-K (parental anti-oxMIF antibody with the heavy chain C-terminal lysine)
BaxM159 variant 5-DIQMAE = target: BaxM159 variant 5-DIQMAE
BaxM159 variant 6-EIVLGQ = target: BaxM159 variant 6-EIVLGQ
BaxM159 variant 8-DIQMGE = target: BaxM159 variant 8-DIQMGE
BaxM159 variant 9-EIVLGE = target: BaxM159 variant 9-EIVLGE
[2] = target: BaxM159 variant 1-DIQMAQ (parental anti-oxMIF antibody without the heavy chain C-terminal lysine)

B1: oxidized macrophage migration inhibitory factor (oxMIF) (natural protein)
chain: MPMFIVNTNVPRASVPDGFLSELTQQLAQATGKPPQYIAVHVVPDQLMAFGGSSEPCALCSLHSIGKIGGAQNRSYSKLLCGLLAERLRISPDRVYINYYDMNAANVGWNNSTFA
modifications: converted to its oxidized form by treatment with 0.2% Proclin300
- Kd (BaxM159 variant 3-EIVLAQ): 1.5 nM
- koff (BaxM159 variant 3-EIVLAQ): 0.00031 s⁻¹
- kon (BaxM159 variant 3-EIVLAQ): 200000 M⁻¹ s⁻¹
- Kd (BaxM159 variant 4-DIQMGQ): 4.3 nM
- koff (BaxM159 variant 4-DIQMGQ): 0.00056 s⁻¹
- kon (BaxM159 variant 4-DIQMGQ): 160000 M⁻¹ s⁻¹
- Kd (BaxM159 variant 7-EIVLAE): 2.4 nM
- koff (BaxM159 variant 7-EIVLAE): 0.00044 s⁻¹
- kon (BaxM159 variant 7-EIVLAE): 180000 M⁻¹ s⁻¹
- Kd [1]: 3 nM
- koff [1]: 0.00038 s⁻¹
- kon [1]: 130000 M⁻¹ s⁻¹
- Kd (BaxM159 variant 5-DIQMAE): 2.5 nM
- koff (BaxM159 variant 5-DIQMAE): 0.0004 s⁻¹
- kon (BaxM159 variant 5-DIQMAE): 160000 M⁻¹ s⁻¹
- Kd (BaxM159 variant 6-EIVLGQ): 2.7 nM
- koff (BaxM159 variant 6-EIVLGQ): 0.00064 s⁻¹
- kon (BaxM159 variant 6-EIVLGQ): 260000 M⁻¹ s⁻¹
- Kd (BaxM159 variant 8-DIQMGE): 4.2 nM
- koff (BaxM159 variant 8-DIQMGE): 0.00054 s⁻¹
- kon (BaxM159 variant 8-DIQMGE): 130000 M⁻¹ s⁻¹
- Kd (BaxM159 variant 9-EIVLGE): 1.4 nM
- koff (BaxM159 variant 9-EIVLGE): 0.00044 s⁻¹
- kon (BaxM159 variant 9-EIVLGE): 310000 M⁻¹ s⁻¹
- Kd [2]: 2.6 nM
- koff [2]: 0.00029 s⁻¹
- kon [2]: 110000 M⁻¹ s⁻¹
